In patent publication US20250205337A1, “COMPOSITIONS AND METHODS FOR ACTIVATING IMMUNE CELLS” (MDX Management LLC, priority 2022, published 2025):
Entries after “also recorded” stand apart in the source; their conditions may differ.

Tests used:
Format in all cases: cell-based, human
[1] = system: monocytes from cancer patients (cMo); assay: cMo survival in vitro (STAT3 activators, inhibitors, M-CSF/GM-CSF, KX1); details: for effect of inhibitor on KX1-supported cMo survival: cMo in KX1; for cMo survival (and differentiation) on supplementation: IL-10-depleted KX1 / in place of IL-10
Description: After two days, the T cell culture medium was used to treat cMo.
IL-10/IL-10R signaling activates the downstream STAT3 signaling pathway.
(§1) The mechanisms by which KX1 could promote cMo survival was further studied.

[2] = system: monocytes from healthy donors (Mo); assay: Response of monocytes from healthy donors (Mo) to M-CSF and GM-CSF
Description: Similarly, cMo poorly respond to GM-CSF alone or GM-CSF plus IL-4 that drives DC differentiation (data not shown). […] Parallel experiments testing the same M-CSF and GM-CSF reagents successfully differentiated Mo from healthy donors with >90% survival rates.
(§2) Examination of Akt and Erk1/2, as well as other signaling molecules, detected similar total levels in Mo versus cMo (FIG. 2C), ruling out the absence of protein phosphorylation due to reduction of protein translation.

[3] = system: monocytes from cancer patients (cMo); assay: Cytokine depletion assays of Karnelian X1 (cMo survival/adhesion and differentiation); details: for role of the cytokine in Karnelian X1 for cMo survival and differentiation: depletion assays
Protocol: The differentiation of cMo from >100 cancer patient samples was tested.
The role of IL-10 and other key factors in KX1 was further studied.

[4] = system: Akt, Erk1/2, STAT3, caspase-9 and caspase-3 in cMo; assay: Survival and apoptosis signal transduction in cMo (Western blotting)
Description: as §2, §1
The role of IL-10 and other key factors in KX1 was further studied. As shown in FIG. 9A-9D, depletion of IL-10 diminished (>70%) KX1-mediated activation of Akt, Erk 1/2, and STAT3, and this global reduction of survival signal was associated with an increase in cell death signal through activation of caspase-9 and caspase-3.
As shown in FIG. 10A-10C, triple cytokine combination (C-combo V1) was capable of achieving >80% cMo differentiation, although each component alone was not sufficient.

[5] = in vitro, at optimal concentration
[6] = promoting cMo survival in vitro, small molecule STAT3 activators
[7] = promoting cMo survival in vitro
[8] = cytokine depleted from Karnelian X1

Cc1[nH]nc2ccc(-c3cncc(OC[C@@H](N)Cc4ccccc4)c3)cc12 [A-674563, reference compound]
effect of inhibitor on KX1-supported cMo survival [1]: abrogated KX1 effectiveness

COc1ccc(S(=O)(=O)Nc2cc(-c3c(O)ccc4ccccc34)c(O)c3ccccc23)cc1 [C188-9, reference compound]
effect of inhibitor on KX1-supported cMo survival [1]: dose-dependently nullified the effect of KX1

NC1(Cc2ccc(Cl)cc2)CCN(c2ncnc3[nH]ccc23)CC1 [CCT128930, reference compound]
effect of inhibitor on KX1-supported cMo survival [1]: abrogated KX1 effectiveness

COc1c(O)cc2oc3cc(O)c(CC=C(C)C)c(O)c3c(=O)c2c1CCC(C)(C)O [Garcinone D, reference compound]
cMo survival (and differentiation) on supplementation [1]: restored cMo survival
Effectiveness (cMo survival rate) [1, 5]: 90-100%
Optimal concentration (ng/mL) [1, 6]: 500 to 2000 ng/mL

CC(=O)c1cc2c(o1)C(=O)c1ccccc1C2=O [Napabucasin, reference compound]
effect of inhibitor on KX1-supported cMo survival [1]: dose-dependently nullified the effect of KX1

N#CC(=C(/N)Sc1ccccc1N)/C(C#N)=C(\N)Sc1ccccc1N [U0126, reference compound]
effect of inhibitor on KX1-supported cMo survival [1]: abrogated KX1 effectiveness

Colivelin TFA [reference compound]
cMo survival (and differentiation) on supplementation [1]: restored cMo survival
Effectiveness (cMo survival rate) [1, 5]: 90-100%
Optimal concentration (ng/mL) [1, 6]: 10000 to 100000 ng/mL

GM-CSF: Granulocyte-macrophage colony-stimulating factor
cMo responsiveness to differentiation factor ([1]; over twenty cMo samples, various solid tumors): non- or poor responsiveness
survival signal transduction in Mo (activation of Akt and Erk1/2) [2]: induced strong survival signal transduction in Mo cells
role of the cytokine in Karnelian X1 for cMo survival and differentiation [3]: variable
activation of Akt, Erk1/2, STAT3 in cMo [4]: failed to activate Akt and Erk1/2
caspase-9 and caspase-3 cleavage in cMo [4]: increased caspase-9 and caspase-3 cleavage; also recorded: did induce apoptotic signals via cleavage of caspase-9 and caspase-3

IL-6: Interleukin 6, IL-6 family cytokine
cMo survival (and differentiation) on supplementation [1]: only moderately supported cMo survival and differentiation
Effectiveness (cMo survival rate) [1, 5]: 20-30%
Optimal concentration [1, 7]: 20 to 100 ng/mL
role of the cytokine in Karnelian X1 for cMo survival and differentiation [3]: variable
activation of Akt, Erk1/2, STAT3 in cMo [4]: weaker ability to activate Akt in cMo

IL-17: cytokine in Karnelian X1
role of the cytokine in Karnelian X1 for cMo survival and differentiation [3]: dispensable

JAK inhibitor I [reference compound]
effect of inhibitor on KX1-supported cMo survival [1]: dose-dependently nullified the effect of KX1

TNFα
reduction of cMo adhesion and survival on depletion of the cytokine from Karnelian X1 [3, 8]: ~20%

B1: G-CSF: growth factor tested in IL-10-depleted KX1 (protein, UniProt P09919 31-207, looked up)
Granulocyte …: TPLGPASSLPQSFLLKCLEQVRKIQGDGAALQEKLVSECATYKLCHPEELVLLGHSLGIPWAPLSSCPSQALQLAGCLSQLHSGLFLYQGLLQALEGISPELGPTLDTLQLDVADFATTIWQQMEELGMAPALQPTQGAMPAFASAFQRRAGGVLVASHLQSFLEVSYRVLRHLAQP
Effectiveness (cMo survival rate) ([1]; in IL-10-depleted KX1): 30-40% in
Optimal concentration (ng/mL) ([1]; in IL-10-depleted KX1): >1 ng/mL (1-200)

B2: IL-24: IL-10 family cytokine, STAT3 activator (protein, UniProt Q13007 52-206, looked up)
Interleukin-24: QEFHFGPCQVKGVVPQKLWEAFWAVKDTMQAQDNITSARLLQQEVLQNVSDAESCYLVHTLLEFYLKTVFKNYHNRTVEVRTLKSFSTLANNFVLIVSQLQPSQENEMFSIRDSAHRRFLLFRRAFKQLDVEAALTKALGEVDILLTWMQKFYKL
cMo survival (and differentiation) on supplementation [1]: could replace IL-10 to support cMo survival and differentiation
Effectiveness (cMo survival rate) [1, 5]: 70-85%
Optimal concentration (ng/mL) [1, 7]: >20 ng/mL (20-100)

B3: IL-4: Interleukin 4, cytokine in Karnelian X1 (protein, UniProt P05112 25-153, looked up)
Interleukin-4: HKCDITLQEIIKTLNSLTEQKTLCTELTVTDIFAASKNTTEKETFCRAATVLRQFYSHHEKDTRCLGATAQQFHRHKQLIRFLKRLDRNLWGLAGLNSCPVKEANQSTLENFLERLKTIMREKYSKCSS
reduction of cMo differentiation to APCs [3, 8]: ~50%
role of the cytokine in Karnelian X1 for cMo survival and differentiation [3]: did not affect cMo survival/adhesion

B4: IFNγ: Interferon gamma, cytokine in Karnelian X1 (protein, UniProt P01579 24-161, looked up)
Interferon gamma: QDPYVKEAENLKKYFNAGHSDVADNGTLFLGILKNWKEESDRKIMQSQIVSFYFKLFKNFKDDQSIQKSVETIKEDMNVKFFNSNKKKRDDFEKLTNYSVTDLNVQRKAIHELIQVMAELSPAAKTGKRKRSQMLFRG
reduction of cMo adhesion and survival on depletion of the cytokine from Karnelian X1 [3, 8]: ~20%

B5: IL-22: IL-10 family cytokine, STAT3 activator (protein, UniProt Q9GZX6 34-179, looked up)
Interleukin-22: APISSHCRLDKSNFQQPYITNRTFMLAKEASLADNNTDVRLIGEKLFHGVSMSERCYLMKQVLNFTLEEVLFPQSDRFQPYMQEVVPFLARLSNRLSTCHIEGDDLHIQRNVQKLKDTVKKLGESGEIKAIGELDLLFMSLRNACI
cMo survival (and differentiation) on supplementation [1]: could replace IL-10 to support cMo survival and differentiation
Effectiveness (cMo survival rate) [1, 5]: 80-100%
Optimal concentration (ng/mL) [1, 7]: >10 ng/mL (10-100)

B6: IL-19: IL-10 family cytokine, STAT3 activator (protein, UniProt Q9UHD0 25-177, looked up)
Interleukin-19: LRRCLISTDMHHIEESFQEIKRAIQAKDTFPNVTILSTLETLQIIKPLDVCCVTKNLLAFYVDRVFKDHQEPNPKILRKISSIANSFLYMQKTLRQCQEQRQCHCRQEATNATRVIHDNYDQLEVHAAAIKSLGELDVFLAWINKNHEVMFSA
cMo survival (and differentiation) on supplementation [1]: could replace IL-10 to support cMo survival and differentiation
Effectiveness (cMo survival rate) [1, 5]: 70-85%
Optimal concentration (ng/mL) [1, 7]: >10 ng/mL (10-100)

B7: IL-10: Interleukin 10, cytokine; recombinant form added back; IL-10 family STAT3 activator (protein, UniProt P22301 19-178, looked up)
Interleukin-10: SPGQGTQSENSCTHFPGNLPNMLRDLRDAFSRVKTFFQMKDQLDNLLLKESLLEDFKGYLGCQALSEMIQFYLEEVMPQAENQDPDIKAHVNSLGENLKTLRLRLRRCHRFLPCENKSKAVEQVKNAFNKLQEKGIYKAMSEFDIFINYIEAYMTMKIRN
cMo survival (and differentiation) on supplementation [1]: dose-dependently restored its survival capacity
Effectiveness (cMo survival rate) [1, 5]: 90-100%
Optimal concentration (ng/mL) [1, 7]: >10 ng/mL (10-100)
remnant cells that survived IL-10 depletion ([3]; IL-10 depleted from Karnelian X1): 5-20%
reduction of cMo adhesion and survival on depletion of the cytokine from Karnelian X1 [3, 8]: 60-80%
role of the cytokine in Karnelian X1 for cMo survival and differentiation [3]: only weakly influence cMo differentiation to APCs
diminution of KX1-mediated activation of Akt, Erk 1/2 and STAT3 ([4]; cytokine depleted from KX1): > 70%

B8: IL-11: IL-6 family member cytokine (protein, UniProt P20809 22-199, looked up)
Interleukin-11: PGPPPGPPRVSPDPRAELDSTVLLTRSLLADTRQLAAQLRDKFPADGDHNLDSLPTLAMSAGALGALQLPGVLTRLRADLLSYLRHVQWLRRAGGSSLKTLEPELGTLQARLDRLLRRLQLLMSRLALPQPPPDPPAPPLAPPSSAWGGIRAAHAILGGLHLTLDWAVRGLLLLKTRL
cMo survival (and differentiation) on supplementation [1]: only moderately supported cMo survival and differentiation

B9: IL-23: IL-12 family cytokine, STAT3 activator (protein, UniProt Q9NPF7 20-189; P29460 23-328, looked up)
Interleukin-23 subunit alpha: RAVPGGSSPAWTQCQQLSQKLCTLAWSAHPLVGHMDLREEGDEETTNDVPHIQCGDGCDPQGLRDNSQFCLQRIHQGLIFYEKLLGSDIFTGEPSLLPDSPVGQLHASLLGLSQLLQPEGHHWETQQIPSLSPSQPWQRLLLRFKILRSLQAFVAVAARVFAHGAATLSP
Interleukin-12 subunit beta: IWELKKDVYVVELDWYPDAPGEMVVLTCDTPEEDGITWTLDQSSEVLGSGKTLTIQVKEFGDAGQYTCHKGGEVLSHSLLLLHKKEDGIWSTDILKDQKEPKNKTFLRCEAKNYSGRFTCWWLTTISTDLTFSVKSSRGSSDPQGVTCGAATLSAERVRGDNKEYEYSVECQEDSACPAAEESLPIEVMVDAVHKLKYENYTSSFFIRDIIKPDPPKNLQLKPLKNSRQVEVSWEYPDTWSTPHSYFSLTFCVQVQGKSKREKKDRVFTDKTSATVICRKNASISVRAQDRYYSSSWSEWASVPCS
cMo survival (and differentiation) on supplementation [1]: could replace IL-10 to support cMo survival and differentiation
Effectiveness (cMo survival rate) [1, 5]: 50-70%
Optimal concentration (ng/mL) [1, 7]: >10 ng/mL (10-100)
